{
  "source": "the supplement of paper PMC9876800",
  "data": [
    {"test_system": "peptide library, one residue held at a place counted from the S/T acceptor", "experiment": "relative phosphorylation of the sub-library (ratio to the mean residue at this position); human; higher = residue favoured", "conditions": "D fixed; at +2", "method_in_brief": "(§1)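 In 384-well plates, purified recombinant kinases (human or orthologue constructs) were incubated for 90 min under kinase-specific conditions with 50 μM biotinylated degenerate peptide sub-libraries and 50 μM ATP spiked with γ-32P-ATP. Each sub-library fixed a single residue at one position around a central Ser/Thr. Relative sub-library phosphorylation, measured by phosphorimaging and densitometry of streptavidin membrane spots, is given as a ratio to the mean residue at that position.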", "values": [
      {"substance": "TNIK, construct: aa1-314 (from UniProt Q9UKE5)", "relative phosphorylation": 0.678},
      {"substance": "SLK, construct: Full length (from UniProt Q9H2G2)", "relative phosphorylation": 0.669},
      {"substance": "CDK10, construct: Full length (from UniProt Q15131)", "relative phosphorylation": 0.342}
    ]},
    {"test_system": "peptide library, one residue held at a place counted from the S/T acceptor", "experiment": "relative phosphorylation of the sub-library (ratio to the mean residue at this position); human; higher = residue favoured", "conditions": "D fixed; at +3", "method_in_brief": "as §1", "values": [
      {"substance": "PKN2, construct: aa501-984 (from UniProt Q16513)", "relative phosphorylation": 0.543},
      {"substance": "IKBKE, construct: Full length (from UniProt Q14164)", "relative phosphorylation": 0.898},
      {"substance": "MAP4K5, construct: Full length (from UniProt Q9Y4K4)", "relative phosphorylation": 0.375},
      {"substance": "NEK6, construct: Full length (from UniProt Q9HC98)", "relative phosphorylation": 0.624},
      {"substance": "SIK3, construct: aa1-307 (from UniProt Q9Y2K2)", "relative phosphorylation": 2.07},
      {"substance": "TNIK, construct: aa1-314 (from UniProt Q9UKE5)", "relative phosphorylation": 0.496},
      {"substance": "SLK, construct: Full length (from UniProt Q9H2G2)", "relative phosphorylation": 0.58},
      {"substance": "CDK10, construct: Full length (from UniProt Q15131)", "relative phosphorylation": 0.305}
    ]},
    {"test_system": "peptide library, one residue held at a place counted from the S/T acceptor", "experiment": "relative phosphorylation of the sub-library (ratio to the mean residue at this position); human; higher = residue favoured", "conditions": "D fixed; at +4", "method_in_brief": "as §1", "values": [
      {"substance": "PKN2, construct: aa501-984 (from UniProt Q16513)", "relative phosphorylation": 0.614},
      {"substance": "IKBKE, construct: Full length (from UniProt Q14164)", "relative phosphorylation": 0.987},
      {"substance": "MAP4K5, construct: Full length (from UniProt Q9Y4K4)", "relative phosphorylation": 0.726},
      {"substance": "NEK6, construct: Full length (from UniProt Q9HC98)", "relative phosphorylation": 0.699},
      {"substance": "SIK3, construct: aa1-307 (from UniProt Q9Y2K2)", "relative phosphorylation": 0.508},
      {"substance": "TNIK, construct: aa1-314 (from UniProt Q9UKE5)", "relative phosphorylation": 0.73},
      {"substance": "SLK, construct: Full length (from UniProt Q9H2G2)", "relative phosphorylation": 1.14},
      {"substance": "CDK10, construct: Full length (from UniProt Q15131)", "relative phosphorylation": 0.505}
    ]},
    {"test_system": "peptide library, one residue held at a place counted from the S/T acceptor", "experiment": "relative phosphorylation of the sub-library (ratio to the mean residue at this position); human; higher = residue favoured", "conditions": "D fixed; at -1", "method_in_brief": "as §1", "values": [
      {"substance": "PKN2, construct: aa501-984 (from UniProt Q16513)", "relative phosphorylation": 0.962},
      {"substance": "IKBKE, construct: Full length (from UniProt Q14164)", "relative phosphorylation": 1.04},
      {"substance": "MAP4K5, construct: Full length (from UniProt Q9Y4K4)", "relative phosphorylation": 0.63},
      {"substance": "NEK6, construct: Full length (from UniProt Q9HC98)", "relative phosphorylation": 1.47},
      {"substance": "SIK3, construct: aa1-307 (from UniProt Q9Y2K2)", "relative phosphorylation": 0.631},
      {"substance": "TNIK, construct: aa1-314 (from UniProt Q9UKE5)", "relative phosphorylation": 0.855},
      {"substance": "SLK, construct: Full length (from UniProt Q9H2G2)", "relative phosphorylation": 0.484},
      {"substance": "CDK10, construct: Full length (from UniProt Q15131)", "relative phosphorylation": 0.378}
    ]},
    {"test_system": "peptide library, one residue held at a place counted from the S/T acceptor", "experiment": "relative phosphorylation of the sub-library (ratio to the mean residue at this position); human; higher = residue favoured", "conditions": "D fixed; at -2", "method_in_brief": "as §1", "values": [
      {"substance": "PKN2, construct: aa501-984 (from UniProt Q16513)", "relative phosphorylation": 0.35},
      {"substance": "IKBKE, construct: Full length (from UniProt Q14164)", "relative phosphorylation": 1.25},
      {"substance": "MAP4K5, construct: Full length (from UniProt Q9Y4K4)", "relative phosphorylation": 0.491},
      {"substance": "NEK6, construct: Full length (from UniProt Q9HC98)", "relative phosphorylation": 2.91},
      {"substance": "SIK3, construct: aa1-307 (from UniProt Q9Y2K2)", "relative phosphorylation": 0.339},
      {"substance": "TNIK, construct: aa1-314 (from UniProt Q9UKE5)", "relative phosphorylation": 0.883},
      {"substance": "SLK, construct: Full length (from UniProt Q9H2G2)", "relative phosphorylation": 0.531},
      {"substance": "CDK10, construct: Full length (from UniProt Q15131)", "relative phosphorylation": 0.311}
    ]},
    {"test_system": "peptide library, one residue held at a place counted from the S/T acceptor", "experiment": "relative phosphorylation of the sub-library (ratio to the mean residue at this position); human; higher = residue favoured", "conditions": "D fixed; at -3", "method_in_brief": "as §1", "values": [
      {"substance": "PKN2, construct: aa501-984 (from UniProt Q16513)", "relative phosphorylation": 0.321},
      {"substance": "IKBKE, construct: Full length (from UniProt Q14164)", "relative phosphorylation": 1.24},
      {"substance": "MAP4K5, construct: Full length (from UniProt Q9Y4K4)", "relative phosphorylation": 0.59},
      {"substance": "NEK6, construct: Full length (from UniProt Q9HC98)", "relative phosphorylation": 0.911},
      {"substance": "SIK3, construct: aa1-307 (from UniProt Q9Y2K2)", "relative phosphorylation": 0.328},
      {"substance": "TNIK, construct: aa1-314 (from UniProt Q9UKE5)", "relative phosphorylation": 0.799},
      {"substance": "SLK, construct: Full length (from UniProt Q9H2G2)", "relative phosphorylation": 0.8},
      {"substance": "CDK10, construct: Full length (from UniProt Q15131)", "relative phosphorylation": 0.302}
    ]}
  ]
}
